Source: PMC7705443 (2020)

Target: SARS-CoV-2 RBD (residues 319-541), C-terminal his-tag (SARS-CoV-2, UniProt P0DTC2 319-541)
Assay: SPR

B1: P17 antibody (full-length IgG1) (antibody, V domains shown)
VH: QQLVESGGGVVQPGRSLRLSCAASGFTFSSYAMHWVRQAPGKGLEWVAVISYDGSNKYYADSVKGRFTISRDNSKNTLYLQMNSLRAEDTAVYYCARHATLMNNKDIWGQGTLVTVSS
VL: not shown
Question: How did the koff turn out when B1 was run?
Answer: 0.000221 s⁻¹
